According to US20090192084A1:
One block for each substance: values may come before it.

Legend:
[1] = target: Cullin 1 (human) (UniProt Q13616); assay: Flag co-IP, MudPIT MS, MG132
[2] = target: Ubiquitin conjugation factor E4 B, UBE4B (Ufd2ortholog) (human) (UniProt O95155); assay: Flag co-IP, MudPIT MS, MG132
[3] = target: Praja 2 (human) (UniProt O43164); assay: Flag co-IP, MudPIT MS, MG132
[4] = target: RING-box protein 1, RBX1 (human) (UniProt P62877); assay: Flag co-IP, MudPIT MS, MG132
[5] = target: CUL3-interacting protein I. KLHL12 (human) (UniProt Q53G59); assay: Flag co-IP, MudPIT MS, MG132
[6] = target: Kelch repeat and BTB domain-containing protein 7, KBTB7 (human) (UniProt Q8WVZ9); assay: Flag co-IP, MudPIT MS, MG132
[7] = target: Cullin 3 (human) (UniProt Q13618); assay: Flag co-IP, MudPIT MS, MG132
[8] = target: Von Hippel-Lindau disease tumor suppressor, VHL (human) (UniProt P40337); assay: Flag co-IP, MudPIT MS, MG132
[9] = target: Elongin B (human) (UniProt Q15370); assay: Flag co-IP, MudPIT MS, MG132
[10] = target: Kelch-like protein 22. KLEIL22 (human) (UniProt Q53GT1); assay: Flag co-IP, MudPIT MS, MG132
[11] = target: Cullin 4B (human) (UniProt Q13620); assay: Flag co-IP, MudPIT MS, MG132
[12] = target: Kelch domain-containing protein 2, KLDC2 (human) (UniProt Q9Y2U9); assay: Flag co-IP, MudPIT MS, MG132
Sequence of Kelch domain-containing protein 2, KLDC2 (human) (Q9Y2U9 whole entry, the tested form may be a part): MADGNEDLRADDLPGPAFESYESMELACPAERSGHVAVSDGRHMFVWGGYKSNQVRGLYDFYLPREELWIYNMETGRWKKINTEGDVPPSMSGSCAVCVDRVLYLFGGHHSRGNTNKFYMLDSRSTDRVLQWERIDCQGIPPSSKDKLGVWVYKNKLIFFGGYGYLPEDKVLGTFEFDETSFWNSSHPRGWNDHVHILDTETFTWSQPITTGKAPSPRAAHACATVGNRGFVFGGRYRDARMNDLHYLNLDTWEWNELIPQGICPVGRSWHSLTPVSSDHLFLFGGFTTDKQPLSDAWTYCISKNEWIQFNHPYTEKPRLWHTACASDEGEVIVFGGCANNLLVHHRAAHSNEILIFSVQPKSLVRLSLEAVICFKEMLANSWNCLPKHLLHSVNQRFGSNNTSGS

[13] = target: BTB and Kelch domain-containing protein 2, KLHL13 (human) (UniProt Q9P2N7); assay: Flag co-IP, MudPIT MS, MG132
[14] = target: CUL4- and DDB I-associated WDR protein 2, WDR26 (human) (UniProt Q9H7D7); assay: Flag co-IP, MudPIT MS, MG132
[15] = target: DDB1- and CUL4-associated factor I. VprBP (human) (UniProt Q9Y4B6); assay: Flag co-IP, MudPIT MS, MG132
Sequence of DDB1- and CUL4-associated factor I. VprBP (human) (Q9Y4B6 other isoform, or with tags, fused parts or gaps limits assumed): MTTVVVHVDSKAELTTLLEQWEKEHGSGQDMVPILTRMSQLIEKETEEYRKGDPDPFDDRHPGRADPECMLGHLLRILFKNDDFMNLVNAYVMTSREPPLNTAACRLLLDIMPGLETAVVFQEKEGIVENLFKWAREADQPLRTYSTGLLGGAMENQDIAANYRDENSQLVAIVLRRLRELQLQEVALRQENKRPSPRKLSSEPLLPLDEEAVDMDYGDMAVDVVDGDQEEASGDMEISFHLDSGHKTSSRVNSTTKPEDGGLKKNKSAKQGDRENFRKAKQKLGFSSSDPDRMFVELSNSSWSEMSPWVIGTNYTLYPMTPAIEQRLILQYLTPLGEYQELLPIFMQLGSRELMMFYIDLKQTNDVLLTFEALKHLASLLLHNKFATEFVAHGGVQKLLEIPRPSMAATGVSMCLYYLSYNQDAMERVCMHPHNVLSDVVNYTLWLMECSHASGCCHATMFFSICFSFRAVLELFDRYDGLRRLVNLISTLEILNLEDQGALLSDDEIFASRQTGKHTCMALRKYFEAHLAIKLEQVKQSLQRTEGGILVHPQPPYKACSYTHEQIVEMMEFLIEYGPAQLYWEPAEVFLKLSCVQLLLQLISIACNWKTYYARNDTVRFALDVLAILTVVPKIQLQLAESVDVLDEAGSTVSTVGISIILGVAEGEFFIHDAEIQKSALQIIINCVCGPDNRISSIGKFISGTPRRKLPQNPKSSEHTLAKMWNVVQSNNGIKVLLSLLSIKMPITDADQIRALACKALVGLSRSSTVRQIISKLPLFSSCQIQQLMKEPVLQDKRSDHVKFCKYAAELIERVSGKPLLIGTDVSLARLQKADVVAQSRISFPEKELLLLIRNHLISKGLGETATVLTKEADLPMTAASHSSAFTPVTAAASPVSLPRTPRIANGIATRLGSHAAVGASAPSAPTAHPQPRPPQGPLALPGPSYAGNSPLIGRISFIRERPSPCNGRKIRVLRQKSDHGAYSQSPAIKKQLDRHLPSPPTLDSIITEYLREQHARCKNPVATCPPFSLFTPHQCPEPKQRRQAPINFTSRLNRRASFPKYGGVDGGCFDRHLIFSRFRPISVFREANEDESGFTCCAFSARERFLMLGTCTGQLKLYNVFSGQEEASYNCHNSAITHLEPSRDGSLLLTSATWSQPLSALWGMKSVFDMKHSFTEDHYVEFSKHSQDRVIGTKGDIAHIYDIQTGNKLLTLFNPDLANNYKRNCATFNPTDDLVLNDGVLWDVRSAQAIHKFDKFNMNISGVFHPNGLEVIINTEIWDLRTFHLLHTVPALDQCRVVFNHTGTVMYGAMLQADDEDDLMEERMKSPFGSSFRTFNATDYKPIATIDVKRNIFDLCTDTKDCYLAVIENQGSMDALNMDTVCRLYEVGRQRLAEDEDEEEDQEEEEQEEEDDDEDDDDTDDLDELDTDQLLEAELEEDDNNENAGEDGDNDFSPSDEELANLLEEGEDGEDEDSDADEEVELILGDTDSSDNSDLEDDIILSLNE

[16] = target: Kelch domain-containing protein 3, KLDC3 (human) (UniProt Q9BQ90); assay: Flag co-IP, MudPIT MS, MG132
[17] = target: E3 ubiquitin-protein ligase Topors (human) (UniProt Q9NS56); assay: Flag co-IP, MudPIT MS, MG132
[18] = target: Bromodomain and WD-repeat domain-containing protein 2, WDR 1 I (human) (UniProt Q9BZH6); assay: Flag co-IP, MudPIT MS, MG132
Sequence of Bromodomain and WD-repeat domain-containing protein 2, WDR 1 I (human) (Q9BZH6 whole entry, the tested form may be a part): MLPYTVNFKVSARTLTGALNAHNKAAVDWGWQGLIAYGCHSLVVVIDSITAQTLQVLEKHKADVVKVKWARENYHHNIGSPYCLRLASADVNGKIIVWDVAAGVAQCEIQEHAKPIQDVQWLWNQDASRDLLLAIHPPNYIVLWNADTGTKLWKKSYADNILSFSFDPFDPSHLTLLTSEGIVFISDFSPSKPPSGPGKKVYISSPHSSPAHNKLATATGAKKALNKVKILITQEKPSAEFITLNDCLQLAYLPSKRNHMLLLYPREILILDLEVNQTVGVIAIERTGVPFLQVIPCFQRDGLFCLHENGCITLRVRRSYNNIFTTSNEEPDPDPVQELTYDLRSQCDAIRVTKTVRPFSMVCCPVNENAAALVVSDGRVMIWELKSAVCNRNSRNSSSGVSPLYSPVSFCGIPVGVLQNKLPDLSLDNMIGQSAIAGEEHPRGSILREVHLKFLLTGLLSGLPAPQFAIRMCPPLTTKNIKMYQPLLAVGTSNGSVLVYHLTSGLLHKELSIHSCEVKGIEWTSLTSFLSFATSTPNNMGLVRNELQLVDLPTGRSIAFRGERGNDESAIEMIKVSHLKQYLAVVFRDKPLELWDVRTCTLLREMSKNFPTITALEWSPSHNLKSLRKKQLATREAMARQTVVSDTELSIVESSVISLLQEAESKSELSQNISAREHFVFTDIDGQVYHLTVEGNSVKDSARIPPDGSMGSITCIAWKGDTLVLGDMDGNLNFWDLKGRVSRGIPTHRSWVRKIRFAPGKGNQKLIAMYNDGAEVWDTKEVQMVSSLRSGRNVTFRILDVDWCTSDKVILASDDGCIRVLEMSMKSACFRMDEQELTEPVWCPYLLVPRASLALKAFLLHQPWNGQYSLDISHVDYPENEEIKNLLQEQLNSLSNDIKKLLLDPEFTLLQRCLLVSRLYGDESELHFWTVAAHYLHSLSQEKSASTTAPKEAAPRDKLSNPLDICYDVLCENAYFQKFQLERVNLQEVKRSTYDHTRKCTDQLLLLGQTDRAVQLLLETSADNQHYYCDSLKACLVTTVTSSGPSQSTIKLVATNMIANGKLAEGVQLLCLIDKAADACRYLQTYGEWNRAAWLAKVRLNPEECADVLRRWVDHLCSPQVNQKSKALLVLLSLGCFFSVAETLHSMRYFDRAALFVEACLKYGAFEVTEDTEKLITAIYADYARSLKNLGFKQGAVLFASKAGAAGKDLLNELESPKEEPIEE

[19] = target: Galectin-3 binding protein. LG3BP (human) (UniProt Q08380); assay: Flag co-IP, MudPIT MS, MG132
[20] = target: UBR1 (human) (UniProt Q8IWV7); assay: Flag co-IP, MudPIT MS, MG132
[21] = target: RING finger protein 126. RNE126 (human) (UniProt Q9BV68); assay: Flag co-IP, MudPIT MS, MG132
Sequence of RING finger protein 126. RNE126 (human) (Q9BV68 2-311 limits assumed): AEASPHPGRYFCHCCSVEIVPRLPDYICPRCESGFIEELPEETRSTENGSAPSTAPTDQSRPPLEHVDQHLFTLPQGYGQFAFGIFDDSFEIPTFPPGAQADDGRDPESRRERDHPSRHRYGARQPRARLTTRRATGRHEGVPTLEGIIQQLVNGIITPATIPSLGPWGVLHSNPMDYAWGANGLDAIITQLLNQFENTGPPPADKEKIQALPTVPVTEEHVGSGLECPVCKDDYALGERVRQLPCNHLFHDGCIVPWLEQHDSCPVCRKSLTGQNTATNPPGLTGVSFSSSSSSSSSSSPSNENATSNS

[22] = target: T1, endogenous UFD1 (human) (UniProt Q92890); assay: Flag co-IP, 293 cells, MudPIT MS
T1 sequence (looked up): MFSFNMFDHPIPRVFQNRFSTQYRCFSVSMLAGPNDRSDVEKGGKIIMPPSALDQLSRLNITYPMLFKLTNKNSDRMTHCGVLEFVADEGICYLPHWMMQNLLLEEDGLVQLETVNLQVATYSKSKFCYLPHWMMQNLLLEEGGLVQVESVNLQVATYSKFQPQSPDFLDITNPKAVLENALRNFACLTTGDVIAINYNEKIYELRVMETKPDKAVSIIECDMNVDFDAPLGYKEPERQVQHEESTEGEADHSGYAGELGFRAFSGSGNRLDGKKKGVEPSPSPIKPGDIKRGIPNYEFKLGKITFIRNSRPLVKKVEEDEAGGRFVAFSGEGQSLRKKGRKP

Sequence of Praja 2 (human) (O43164 2-708 limits assumed): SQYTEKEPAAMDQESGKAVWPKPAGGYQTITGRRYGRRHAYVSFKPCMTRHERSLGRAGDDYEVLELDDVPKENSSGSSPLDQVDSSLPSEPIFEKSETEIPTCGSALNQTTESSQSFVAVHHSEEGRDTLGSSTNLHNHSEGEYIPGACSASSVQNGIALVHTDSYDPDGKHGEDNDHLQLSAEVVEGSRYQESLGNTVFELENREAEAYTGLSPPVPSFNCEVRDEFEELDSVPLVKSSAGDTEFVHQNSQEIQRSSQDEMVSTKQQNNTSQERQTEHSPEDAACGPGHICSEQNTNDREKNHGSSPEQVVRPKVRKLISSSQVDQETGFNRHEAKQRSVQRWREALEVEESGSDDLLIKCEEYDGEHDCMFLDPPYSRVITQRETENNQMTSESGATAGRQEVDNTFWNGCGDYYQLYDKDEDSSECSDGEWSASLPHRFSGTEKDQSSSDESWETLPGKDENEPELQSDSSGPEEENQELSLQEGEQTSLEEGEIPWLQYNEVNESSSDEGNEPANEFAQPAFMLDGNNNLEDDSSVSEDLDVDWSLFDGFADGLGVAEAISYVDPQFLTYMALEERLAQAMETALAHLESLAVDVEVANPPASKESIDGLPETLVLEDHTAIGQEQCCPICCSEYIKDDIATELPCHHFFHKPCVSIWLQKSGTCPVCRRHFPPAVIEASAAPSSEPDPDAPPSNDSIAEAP
Sequence of Cullin 1 (human) (Q13616 whole entry): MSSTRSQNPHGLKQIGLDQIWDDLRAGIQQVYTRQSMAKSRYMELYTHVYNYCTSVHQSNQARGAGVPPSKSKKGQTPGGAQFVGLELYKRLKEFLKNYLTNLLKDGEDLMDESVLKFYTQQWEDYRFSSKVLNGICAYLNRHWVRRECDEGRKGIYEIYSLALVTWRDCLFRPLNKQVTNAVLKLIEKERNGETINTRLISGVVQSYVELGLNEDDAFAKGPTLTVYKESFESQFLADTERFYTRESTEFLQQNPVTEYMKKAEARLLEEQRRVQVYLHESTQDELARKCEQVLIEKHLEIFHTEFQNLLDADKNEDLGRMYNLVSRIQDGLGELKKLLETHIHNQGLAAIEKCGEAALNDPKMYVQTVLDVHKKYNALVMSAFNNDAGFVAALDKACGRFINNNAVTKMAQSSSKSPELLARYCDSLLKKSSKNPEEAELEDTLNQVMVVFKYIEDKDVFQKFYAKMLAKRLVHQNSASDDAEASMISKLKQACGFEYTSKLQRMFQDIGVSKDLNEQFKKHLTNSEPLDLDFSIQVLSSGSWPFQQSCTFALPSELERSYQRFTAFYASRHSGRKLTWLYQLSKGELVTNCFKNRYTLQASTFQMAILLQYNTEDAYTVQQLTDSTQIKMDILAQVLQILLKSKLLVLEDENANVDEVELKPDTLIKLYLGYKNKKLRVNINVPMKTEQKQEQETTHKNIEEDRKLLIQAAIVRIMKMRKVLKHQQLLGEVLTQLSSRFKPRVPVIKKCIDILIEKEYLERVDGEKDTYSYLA
Sequence of RING-box protein 1, RBX1 (human) (P62877 whole entry): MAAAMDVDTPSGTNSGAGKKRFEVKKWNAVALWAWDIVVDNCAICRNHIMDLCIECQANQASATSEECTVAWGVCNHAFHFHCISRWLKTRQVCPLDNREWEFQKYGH

abundance factor (AF) [1]: 1.5
sequence count [1]: 2
spectrum count [1]: 3
abundance factor (AF) [2]: 1.5
sequence count [2]: 5
spectrum count [2]: 5
abundance factor (AF) [3]: 1.1
sequence count [3]: 2
spectrum count [3]: 2
Substance: Flag-SAKS1 (from UniProt Q04323 1-297)

abundance factor (AF) [4]: 4.1
sequence count [4]: 2
spectrum count [4]: 2
abundance factor (AF) [5]: 1.2
sequence count [5]: 3
spectrum count [5]: 3
abundance factor (AF) [6]: 1
sequence count [6]: 3
spectrum count [6]: 3
abundance factor (AF) [7]: 8.4
sequence count [7]: 16
spectrum count [7]: 30
abundance factor (AF) [8]: 2.1
sequence count [8]: 2
spectrum count [8]: 2
abundance factor (AF) [9]: 9.7
sequence count [9]: 5
spectrum count [9]: 7
abundance factor (AF) [10]: 2.8
sequence count [10]: 8
spectrum count [10]: 8
abundance factor (AF) [11]: 2.7
sequence count [11]: 10
spectrum count [11]: 11
abundance factor (AF) [12]: 3.2
sequence count [12]: 4
spectrum count [12]: 6
abundance factor (AF) [13]: 1.4
sequence count [13]: 4
spectrum count [13]: 4
abundance factor (AF) [14]: 7.2
sequence count [14]: 9
spectrum count [14]: 17
abundance factor (AF) [15]: 0.6
sequence count [15]: 3
spectrum count [15]: 4
abundance factor (AF) [16]: 1.7
sequence count [16]: 3
spectrum count [16]: 3
abundance factor (AF) [17]: 0.6
sequence count [17]: 3
spectrum count [17]: 3
abundance factor (AF) [18]: 1.3
sequence count [18]: 5
spectrum count [18]: 7
Substance: Flag-UBXD7 (from UniProt O94888 1-489)

abundance factor (AF) [19]: 1.1
spectrum count [19]: 3
abundance factor (AF) [20]: 0.4
sequence count [20]: 3
spectrum count [20]: 3
abundance factor (AF) [21]: 1.4
sequence count [21]: 2
spectrum count [21]: 2
sequence count [22]: 7
sequence coverage [22]: 29.4%
spectrum count [22]: 82
Substance: Flag-UBXD8 (from UniProt Q96CS3 1-445)
